The values below come from article doi:10.1101/2019.12.24.886648.

In this assay the target is endogenous Sec22b (rat) (rat (endogenous in PC12 and in rat hippocampal neurons)) (UniProt Q4KM74). Description: proximity ligation.
Chain of UniProt Q4KM74 (Q4KM74 whole entry): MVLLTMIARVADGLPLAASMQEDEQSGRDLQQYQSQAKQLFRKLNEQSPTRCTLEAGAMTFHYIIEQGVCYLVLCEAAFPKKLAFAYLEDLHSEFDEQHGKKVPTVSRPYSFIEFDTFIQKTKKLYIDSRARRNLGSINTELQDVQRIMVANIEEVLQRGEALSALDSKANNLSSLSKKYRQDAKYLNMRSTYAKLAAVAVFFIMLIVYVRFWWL

On to “endogenous E-Syt2 (rat hippocampal neurons) (natural protein)”, for which the PLA signal normalized for the area, cell bodies was 2.85%; the PLA signal normalized for the area, growth cones was 7.64%; the PLA signal normalized for the area, neurites came out at 5.53%.
